Results reported in article PMC5240567, “New Insights into Cooperative Binding of Homeodomain Transcription Factors PREP1 and PBX1 to DNA”.

Columns and labels:
PREP1hd [1] = molecular target: T1, PREP1hd (UniProt P55347); assay: fluorescence polarization; conditions: FP and EMSA: 20 mM Na/K phosphate pH 7.2, 150 mM NaCl, 5% glycerol, 1 mM TCEP, room temperature (FP 9 nM DNA, 30 min; EMSA gel run at 4 C in 0.5x TBE); NMR: …
T1 sequence: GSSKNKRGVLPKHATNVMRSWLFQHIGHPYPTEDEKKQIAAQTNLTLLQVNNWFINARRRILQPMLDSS

PREP1hd [2] = molecular target: T2, PREP1hd (UniProt P55347 257-325); assay: fluorescence polarization; FP and EMSA: 20 mM Na/K phosphate pH 7.2, 150 mM NaCl, 5% glycerol, 1 mM TCEP, room temperature (FP 9 nM DNA, 30 min; EMSA gel run at 4 C in 0.5x TBE); NMR: 20; conditions: protein: recombinant, tags: GST cleaved (pGEX-6P), label: 5' 6-FAM (FP)
T2 sequence: T1 sequence

HOXB1HD [3] = molecular target: T3, HOXB1HD (UniProt P14653 171-266); assay: as above; conditions: protein: recombinant, tags: GST cleaved (pGEX-6P), label: 5' 6-FAM (FP)
PREP1HD [4] = molecular target: T4, PREP1HD (UniProt P55347 240-344); assay: as above; conditions: protein: recombinant, tags: GST cleaved (pGEX-6P), label: 5' 6-FAM (FP)
T4 sequence: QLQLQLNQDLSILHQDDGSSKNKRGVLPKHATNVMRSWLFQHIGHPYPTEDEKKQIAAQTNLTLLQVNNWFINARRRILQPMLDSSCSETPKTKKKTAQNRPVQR

PBX1HD = molecular target: T5, PBX1HD (UniProt P40424 227-317); assay: as above; conditions: protein: recombinant, tags: GST cleaved (pGEX-6P)
T5 sequence: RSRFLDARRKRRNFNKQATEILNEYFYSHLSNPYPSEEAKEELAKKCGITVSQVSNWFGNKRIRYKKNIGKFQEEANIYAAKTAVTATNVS

PREP1hd-C = molecular target: T6, PREP1hd-C (UniProt P55347 257-344); assay: as above; conditions: protein: recombinant; tags: GST cleaved (pGEX-6P); label: 5' 6-FAM (FP); unlabeled in EMSA and NMR
T6 sequence: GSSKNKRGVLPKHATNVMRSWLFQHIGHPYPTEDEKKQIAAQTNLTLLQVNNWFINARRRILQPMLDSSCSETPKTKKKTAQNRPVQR

PREP1hd-N = molecular target: T7, PREP1hd-N (UniProt P55347 240-325); assay: as above; conditions: protein: recombinant; tags: GST cleaved (pGEX-6P); label: 5' 6-FAM (FP); unlabeled in EMSA and NMR
T7 sequence: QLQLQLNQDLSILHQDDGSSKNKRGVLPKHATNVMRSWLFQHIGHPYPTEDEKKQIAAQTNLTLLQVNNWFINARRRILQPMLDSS

HOXB1HD [5] = molecular target: T3, HOXB1HD; assay: EMSA; FP and EMSA: 20 mM Na/K phosphate pH 7.2, 150 mM NaCl, 5% glycerol, 1 mM TCEP, room temperature (FP 9 nM DNA, 30 min; EMSA gel run at 4 C in 0.5x TBE); NMR: 20; conditions: protein: recombinant; tags: GST cleaved (pGEX-6P); label: 5' 6-FAM (FP); unlabeled in EMSA
[6] = label: 5' 6-FAM (FP), unlabeled in EMSA

T3 sequence (P14653 171-266): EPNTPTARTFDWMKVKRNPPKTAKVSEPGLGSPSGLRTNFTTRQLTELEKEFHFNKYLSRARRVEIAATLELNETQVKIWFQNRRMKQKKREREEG

“AGGATAACCTGGGATT (double strand) [Control]” gave a Kd (PREP1hd [1]) of 836 µM.

B1: PH (dsDNA)
DNA 1: AGAGTGATTGATAAGG
DNA 2: CCTTATCAATCACTCT
With B1 the Kd (PREP1hd [2]; unlabeled in EMSA) was 51.4 ± 2.5 µM, the Kd (HOXB1HD [3]; unlabeled in EMSA) was 6.2 ± 0.1 µM and the Kd (PREP1HD [4]; unlabeled in EMSA) was 23.5 ± 2 µM. The Kd (PBX1HD; [6]) was 2.1 ± 0.3 µM.

B2: PMH (dsDNA)
DNA 1: AGTGATTGACAGATTC
DNA 2: GAATCTGTCAATCACT
For B2, the Kd (PREP1hd-C) was 15.5 ± 0.6 µM, the Kd (PREP1hd [2]; unlabeled in EMSA and NMR) was 31.8 ± 1.5 µM and the Kd (HOXB1HD [3]; unlabeled in EMSA and NMR) was 2.7 ± 0.2 µM. The Kd (PREP1hd-N) was 23.7 ± 2.6 µM, the Kd (PREP1HD [4]; unlabeled in EMSA and NMR) was 15.4 ± 1 µM and the Kd (PBX1HD; label: 5' 6-FAM (FP), unlabeled in EMSA and NMR) was 0.36 ± 0.1 µM.

B3: Control* (dsDNA)
DNA 1: CGTCAGCCCTACGGGA
DNA 2: TCCCGTAGGGCTGACG
In the case of B3, the Kd (PBX1HD; label: 5' 6-FAM) is reported as 2.1 ± 0.1 µM.

B4: Control (dsDNA)
DNA 1: AGGATAACCTGGGATT
DNA 2: AATCCCAGGTTATCCT
With B4 the binding result (HOXB1HD [5]) was “binds”, the Kd (PREP1HD [4]; unlabeled in EMSA) was 159 ± 5.2 µM and the Kd (PBX1HD; [6]) was 2.5 ± 0.4 µM.

B5: PH* (dsDNA)
DNA 1: AGAGTGATTGATCGGC
DNA 2: GCCGATCAATCACTCT
B5 gave a Kd (PBX1HD; label: 5' 6-FAM) of 3.3 ± 0.5 µM.
